Tests used:
[1] = target: integrin α3β1 on HOK-16B cells (human (HOK-16B human oral keratinocytes)) (UniProt P26006); assay: cell-based or functional assay
[2] = target: integrin α3β1 on HOK-16B cells (human (HOK-16B human oral keratinocytes), UniProt P26006 33-1051; P05556 21-798); assay: cell-based or functional assay
integrin α3β1 on HOK-16B cells, sequence (P26006 33-1051, chain 1 of 2): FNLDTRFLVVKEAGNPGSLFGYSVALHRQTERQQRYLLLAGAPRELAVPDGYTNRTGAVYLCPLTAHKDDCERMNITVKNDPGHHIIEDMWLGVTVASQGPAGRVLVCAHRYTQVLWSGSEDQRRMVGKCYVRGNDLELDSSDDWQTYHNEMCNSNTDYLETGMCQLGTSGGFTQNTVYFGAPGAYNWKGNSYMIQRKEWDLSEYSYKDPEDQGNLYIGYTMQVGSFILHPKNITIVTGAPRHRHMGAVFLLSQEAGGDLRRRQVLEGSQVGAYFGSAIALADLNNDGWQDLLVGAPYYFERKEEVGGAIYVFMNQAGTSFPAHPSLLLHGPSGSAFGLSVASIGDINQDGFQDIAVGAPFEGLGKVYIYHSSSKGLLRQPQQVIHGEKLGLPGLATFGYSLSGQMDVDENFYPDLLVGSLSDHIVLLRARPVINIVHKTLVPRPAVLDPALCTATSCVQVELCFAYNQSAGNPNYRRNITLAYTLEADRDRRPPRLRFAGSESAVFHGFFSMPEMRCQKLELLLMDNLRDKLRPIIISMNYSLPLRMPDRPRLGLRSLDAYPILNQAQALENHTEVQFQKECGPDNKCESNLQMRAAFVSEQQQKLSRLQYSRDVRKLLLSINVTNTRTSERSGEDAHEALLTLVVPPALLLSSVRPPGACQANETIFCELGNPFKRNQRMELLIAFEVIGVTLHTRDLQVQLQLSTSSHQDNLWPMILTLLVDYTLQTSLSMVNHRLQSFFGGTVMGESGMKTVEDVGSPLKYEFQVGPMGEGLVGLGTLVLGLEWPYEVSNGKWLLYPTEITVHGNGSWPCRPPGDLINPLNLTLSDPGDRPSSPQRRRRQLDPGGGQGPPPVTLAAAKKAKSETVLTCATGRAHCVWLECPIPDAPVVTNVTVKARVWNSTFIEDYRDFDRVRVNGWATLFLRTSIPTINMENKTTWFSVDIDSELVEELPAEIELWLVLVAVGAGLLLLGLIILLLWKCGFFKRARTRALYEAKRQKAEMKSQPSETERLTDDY
integrin α3β1 on HOK-16B cells, sequence (P05556 21-798, chain 2 of 2): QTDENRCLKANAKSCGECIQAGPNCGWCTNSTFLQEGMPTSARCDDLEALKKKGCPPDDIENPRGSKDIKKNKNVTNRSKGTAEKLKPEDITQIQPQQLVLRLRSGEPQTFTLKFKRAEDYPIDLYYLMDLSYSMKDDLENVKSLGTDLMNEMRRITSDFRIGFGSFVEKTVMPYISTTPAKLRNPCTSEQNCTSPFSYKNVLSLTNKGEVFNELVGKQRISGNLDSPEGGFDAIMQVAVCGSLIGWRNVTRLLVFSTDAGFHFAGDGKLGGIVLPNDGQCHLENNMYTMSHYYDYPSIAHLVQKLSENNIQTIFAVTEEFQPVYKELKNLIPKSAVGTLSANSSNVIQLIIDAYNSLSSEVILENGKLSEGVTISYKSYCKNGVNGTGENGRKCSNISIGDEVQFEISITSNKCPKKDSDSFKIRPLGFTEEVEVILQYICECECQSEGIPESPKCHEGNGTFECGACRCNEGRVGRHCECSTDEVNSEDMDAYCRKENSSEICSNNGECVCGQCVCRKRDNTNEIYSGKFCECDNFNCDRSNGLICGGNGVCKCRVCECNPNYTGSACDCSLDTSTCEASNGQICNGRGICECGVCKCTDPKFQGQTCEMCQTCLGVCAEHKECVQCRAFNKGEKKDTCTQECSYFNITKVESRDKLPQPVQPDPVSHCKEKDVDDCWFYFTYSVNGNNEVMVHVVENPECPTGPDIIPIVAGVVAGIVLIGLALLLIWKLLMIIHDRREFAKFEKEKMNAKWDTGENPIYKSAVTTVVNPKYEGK

integrin α3β1 on HOK-16B cells (human (HOK-16B human oral keratinocytes)), sequence (P26006 33-1051, chain 1 of 2): as the sequence (P26006 33-1051, chain 1 of 2) above
integrin α3β1 on HOK-16B cells (human (HOK-16B human oral keratinocytes)), sequence (P05556 21-798, chain 2 of 2, further chain): as the sequence (P05556 21-798, chain 2 of 2) above

| FAK phosphorylation at Tyr-397 in HOK-16B cells, fold induction compared with the untreated control [1] [fold] | FAK phosphorylation at Tyr-397 in HOK-16B cells, fold induction compared with the untreated control [2] [fold] | Molecule |
| --- | --- | --- |
| 16.2 |  | human placental laminin (LN) (ligand) |
|  | 8.2 | recombinant LG3 protein of the human laminin-5 α3 chain (rLG3-His6) (ligand) MRGSHHHHHHGMASMTGGQQMGRDLTDDDDKDPSSRSAAGTMEFDFVRLNDTVGVTKKCSEDWKLVRSASFSRGGQLSFTDLGLPPTDHLQASFGFQTFQPSGILLDHQTWTRNLQVTLEDGYIELSTSDSGGPIFKSPQTYMDGLLHYVSVISDNSGLRLLIDDQLLRNSKRLKHISSSRQSLRLGGSNFEGCISNVFVQRLSLSPEVLDLTSNSLKRDVSLGGCSLNKPPFLMLLKGSTRFNKTKTFRINQLLQDTPVASPRSVKVWQDACSPLPKTQANHESLVNSLLDPAANKARKVAELAAATAEQ |
